This is an account of results in article PMC9444072.

For this test, the target named is BK channel α subunit (hSloα1, human slow poke alpha subunit K+ channel) (human) (UniProt Q12791). Nature of the test: native gel or EMSA; native SMA-PAGE (4-16% Tris/glycine gradient gel, 150 V, 1 h, room temperature) of Ni-NTA purified SMALPs from HEK293 membranes, followed by western blot with anti-hsloα, anti-hsloβ or anti-his antibodies; subunits co-expressed in cells and extracted together. For orientation: In EMSA bound probe runs differently from free probe, usually more slowly.

Sequence of BK channel α subunit (hSloα1, human slow poke alpha subunit K+ channel), Q12791 1-1236 (natural protein; other documents disagree on this pair) (Q12791 whole entry): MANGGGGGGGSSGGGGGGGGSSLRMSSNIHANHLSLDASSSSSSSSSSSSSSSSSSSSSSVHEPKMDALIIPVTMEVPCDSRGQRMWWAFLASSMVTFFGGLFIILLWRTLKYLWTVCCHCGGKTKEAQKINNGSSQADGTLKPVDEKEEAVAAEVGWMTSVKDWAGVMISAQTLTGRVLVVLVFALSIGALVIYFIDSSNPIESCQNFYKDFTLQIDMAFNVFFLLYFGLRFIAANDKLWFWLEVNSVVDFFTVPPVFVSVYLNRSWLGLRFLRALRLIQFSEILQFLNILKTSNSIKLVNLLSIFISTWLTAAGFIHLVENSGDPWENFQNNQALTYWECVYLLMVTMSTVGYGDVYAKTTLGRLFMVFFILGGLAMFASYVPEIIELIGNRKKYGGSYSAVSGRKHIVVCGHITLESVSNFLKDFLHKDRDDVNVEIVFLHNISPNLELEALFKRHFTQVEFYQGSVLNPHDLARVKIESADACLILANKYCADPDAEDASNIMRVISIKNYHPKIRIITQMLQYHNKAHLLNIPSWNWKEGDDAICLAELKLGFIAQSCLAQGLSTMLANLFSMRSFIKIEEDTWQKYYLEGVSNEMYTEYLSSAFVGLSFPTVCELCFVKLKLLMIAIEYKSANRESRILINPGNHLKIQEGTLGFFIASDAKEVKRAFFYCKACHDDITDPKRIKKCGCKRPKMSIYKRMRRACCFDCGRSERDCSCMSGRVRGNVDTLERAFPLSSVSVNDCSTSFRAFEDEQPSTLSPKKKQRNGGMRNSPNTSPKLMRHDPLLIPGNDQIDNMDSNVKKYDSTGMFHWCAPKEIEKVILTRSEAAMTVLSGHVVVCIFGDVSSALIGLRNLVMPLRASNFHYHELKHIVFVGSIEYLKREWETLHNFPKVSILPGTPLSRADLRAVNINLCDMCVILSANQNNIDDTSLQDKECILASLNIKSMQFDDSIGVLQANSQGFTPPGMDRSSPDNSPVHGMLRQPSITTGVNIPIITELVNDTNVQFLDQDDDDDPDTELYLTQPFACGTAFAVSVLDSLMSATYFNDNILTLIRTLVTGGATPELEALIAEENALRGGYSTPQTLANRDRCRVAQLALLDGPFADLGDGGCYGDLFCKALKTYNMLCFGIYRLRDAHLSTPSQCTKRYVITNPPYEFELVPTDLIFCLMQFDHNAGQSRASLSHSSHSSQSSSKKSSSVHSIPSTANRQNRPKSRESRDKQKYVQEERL

Broadly, the stoichiometry N is the number of molecules, sites or subunits per partner or assembly. Regarding “BK channel α subunit (hSloα1, human slow poke alpha subunit K+ channel), Q12791 1-1236 (natural protein; other documents disagree on this pair)”, the stoichiometry N stood at 4.
